This assay has as its target Miro1-ABC (aa 1-592), C-terminal 6xHis-tag (human, UniProt Q8IXI2 1-592). Briefly: pull-down.

Sequence of Miro1-ABC (aa 1-592), C-terminal 6xHis-tag (Q8IXI2 1-592): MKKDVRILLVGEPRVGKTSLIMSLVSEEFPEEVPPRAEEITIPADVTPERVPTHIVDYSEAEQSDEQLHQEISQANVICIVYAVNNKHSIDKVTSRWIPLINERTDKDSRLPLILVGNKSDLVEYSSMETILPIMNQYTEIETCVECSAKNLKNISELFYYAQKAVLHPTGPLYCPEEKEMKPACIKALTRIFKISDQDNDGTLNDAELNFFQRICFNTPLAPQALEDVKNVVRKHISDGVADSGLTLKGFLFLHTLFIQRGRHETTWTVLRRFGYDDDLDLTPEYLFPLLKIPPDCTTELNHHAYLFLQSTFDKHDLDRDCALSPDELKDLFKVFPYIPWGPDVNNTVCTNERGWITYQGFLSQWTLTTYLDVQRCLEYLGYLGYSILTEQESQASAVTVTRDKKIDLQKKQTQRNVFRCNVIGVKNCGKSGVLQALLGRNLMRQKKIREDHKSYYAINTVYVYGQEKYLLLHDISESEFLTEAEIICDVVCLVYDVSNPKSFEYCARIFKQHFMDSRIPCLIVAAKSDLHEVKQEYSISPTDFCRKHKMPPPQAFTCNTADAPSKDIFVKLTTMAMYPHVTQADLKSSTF

B1: Myo19 C-tail (aa 898-970)-FLAG (domain or fragment)
chain: not shown
For B1, the binding result is “binds”.

These data come from paper doi:10.1101/296376 (bioRxiv, 2018).
